The values that follow come from the RNAGym collection of RNA variant scans (doi:10.1093/molbev/msab373).

B1: Azoarcus group I ribozyme (parent)
chain: GUGCCUUGCGCCGGGAAACCACGCAAGGGAUGGUGUCAAAUUCGGCGAAACCUAAGCGCCCGCCCGGGCGUAUGGCAACGCCGAGCCAAGCUUCGGCGCCUGCGCCGAUGAAGGUGUAGAGACUAGACGGCACCCACCUAAGGCAAACGCUAUGGUGAAGGCAUAGUCCAGGGAGUGGCGAAAGUCACACAAACCGG

This data set covers variants of B1. As to the kind of experiment: reverse-splicing fitness (ratio to wild type); higher = more active; in vitro selection; Mg2+ level not given. The method in brief: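 An in vitro group I ribozyme library with randomized positions was T7-transcribed and gel-purified. In triplicate, 10 pmol RNA in EPPS pH 7.5 was reacted with 50 pmoles of a 30-nt RNA substrate for 1 h at 37 °C across several added MgCl2 levels (1–48 mM), then stopped with EDTA. Products were reverse transcribed from a substrate-complementary primer, PCR-amplified and sequenced (HiSeq 4000). Fitness is a variant's read proportion after selection over that before, normalised to wild type.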
Turning to C82G A145C C150A C169U U176C, the reverse-splicing fitness came out at 0.00742. Under C82U A120U A145C C150A C169A stands 0.00144; under C82U A111C A120C C169U, 0.0127. Turning to A111G A120G C150A C169G U176A, the reverse-splicing fitness is 0.0259.

As to C82G A111U A120C C150A C169A U176A, the reverse-splicing fitness is 0.0237. As for C82U A111C A120G C150A, the reverse-splicing fitness came out at 0.00908.

As for A111G A120G C150G C169G, the reverse-splicing fitness was 0.0259. Under A111G A120C A145C C150G U176G stands 0.00421; under C82U A145C C150G C169A U176A, 0.00717. Under C82U A120U A145G C150G C169A U176G stands 0.00459. Under C82G A111U A120G A145C C150U C169A U176G stands 0.00544. For the variant C82U A111U A120U A145C U176A, the reverse-splicing fitness is 0.00627. Under C82U A111C A120U A145G C150G U176G stands 0.00395; under A111C A120C C169U U176C, 0.0446.

As for C82A A111C A120U C150G C169A, the reverse-splicing fitness was 0.00857.

On to C82A A111C A120U C150G C169U, for which the reverse-splicing fitness was 0.00639. Under A111G A120G C150G C169U U176C stands 0.0166; under C82A A120U A145G U176C, 0.0599; under C82A A111U A120G A145U C150G C169G U176C, 0.00476. Turning to C82U A120C A145U C150G, the reverse-splicing fitness is 0.0217. With C82U A111G A120U C150G C169G, the reverse-splicing fitness is 0.00572. Regarding C82G A120U A145G C150U, the reverse-splicing fitness was determined as 0.168. Under C82A A120G A145C C169A U176A stands 0.00955; under C82A A111G A120G C150U U176A, 0.0108; under C82G A111C A120C C150G C169U U176G, 0.00751.

For C82U A111C A120C A145C C169U U176A, the reverse-splicing fitness amounted to 0.0162.

A120G A145G C150U C169A: the reverse-splicing fitness was 0.369. Turning to C82U A111U A120U C150U C169U U176C, the reverse-splicing fitness was 0.0041.

As for A111C A145C C169A U176A, the reverse-splicing fitness was determined as 0.0151.

Turning to C82U A111C A120U A145U C150A U176C, the reverse-splicing fitness was found to be 0.00465. Under C82U A111U A120C A145G C169A U176C stands 0.0232; under C82U A111G A145C C150U C169A U176A, 0.00923.

Turning to A111G A120G A145G C169A U176A, the reverse-splicing fitness was found to be 0.0489.

For C82U A120G A145C C150U U176G, the reverse-splicing fitness is 0.00347. Under C82A A111G A120C A145G C150G U176G stands 0.00593; under C82U A111U C150U C169U U176G, 0.00625.

As to A111G A120C A145C C150G C169G U176C, the reverse-splicing fitness is 0.00487. Under C82U A111C A120G A145U C150U C169A U176C stands 0.00758; under A111C A120C A145C U176A, 0.172; under C82U A120C C150U C169G U176G, 0.0038. For the variant A111U A145C C150U C169U U176A, the reverse-splicing fitness came to 0.0173. Under C82A A120G A145G C150U C169A U176C stands 0.0196. Under C82A C150U stands 0.367; under C82G A145U U176G, 0.175; under C82G A120C C169U U176G, 0.00468. Under A111G A120C A145U U176C stands 0.45; under C82U A111C A120C C150G C169U, 0.00884. Regarding C82G A120C A145G C169G, the reverse-splicing fitness stood at 0.00863. Under C82A A111G A120U A145C C150U C169G stands 0.00298; under C82A A111U A145G C150A C169A, 0.0117; under A120U A145U C150U C169G U176C, 0.0637. Under C82U A120C A145G C150G C169G U176G stands 0.00504. Under C82U A111U A120G C150G C169G stands 0.00757; under C82G A111C A120G A145U C150U C169G, 0.0113; under A145G C150U C169U U176A, 0.113.

Take C82A A111G A145C C150G C169U U176C: the reverse-splicing fitness is 0.0106. Under C82U A111G A120G A145C C150U C169A U176G stands 0.00395; under C82G A111G A120G C150G C169A U176C, 0.0135.

On to C82U A145U C169U U176A, for which the reverse-splicing fitness came to 0.0111. Under C82G A111G A145G C150U C169U stands 0.0137.

For the variant C82A A120G A145G C150A C169U U176G, the reverse-splicing fitness was determined as 0.00592. Under C82A A120G A145C C150A U176G stands 0.00435. Turning to C82G A111C A120C A145G C169G, the reverse-splicing fitness stood at 0.00771.

As to C82U A111G C150U, the reverse-splicing fitness amounted to 0.224. Take A111G A120C A145U C169U: the reverse-splicing fitness came to 0.262. For A111G A120C A145U C169A, the reverse-splicing fitness came out at 0.0133. Under C82G A111C A120U A145C C150U C169A U176C stands 0.0022. Under C82A A111C A120C A145C C150G C169U U176G stands 0.00564. As to C82A A111G A120U A145G C169A U176C, the reverse-splicing fitness came to 0.00333. For the variant A111C A120U A145U C150A C169G U176G, the reverse-splicing fitness was determined as 0.00199.

On to C82U A111U A145C C150G C169U U176C, for which the reverse-splicing fitness was 0.00969. With C82U A120C C169A U176A, the reverse-splicing fitness stood at 0.0143. C82A A111C A145G C150G C169A U176A: the reverse-splicing fitness worked out at 0.0119. Under C82U A111C A120C A145C C150U C169U U176G stands 0.0068. With C82G A111C A120G A145G C150G C169U U176C, the reverse-splicing fitness came out at 0.0127. For the variant C82U A111U A120G A145C C150A C169U U176C, the reverse-splicing fitness was 0.00977. Under A120C A145C C150U C169A U176G stands 0.00465; under C82G A111U A120U A145U C150A C169U, 0.00264; under C82A A111G A120U A145G C150A C169G U176A, 0.015. Under C82G A111C A120C A145G C150A U176A stands 0.0118; under C82G A111U A120U C150G C169U U176G, 0.00257. Regarding C82G A111C A120G A145U C150U C169U U176G, the reverse-splicing fitness was 0.00531. In the case of A111C A145U C150G C169U U176C, the reverse-splicing fitness was 0.0134.
